Experimental data reported in US20110165081A1.

How the values were obtained:
[1] = target: prostate specific membrane antigen (PSMA), full-length (human) (UniProt Q04609); assay: radiolabelled mAb bound to PSMA-3T3 cells
[2] = target: prostate specific membrane antigen (PSMA), full-length (human) (UniProt Q04609); assay: radiolabelled mAb bound to PSMA-expressing cells, average
[3] = target: prostate specific membrane antigen (PSMA), full-length (human) (UniProt Q04609); assay: radiolabelled mAb bound to PSMA-3T3 cells (bracket: 3T3 control)
[4] = target: prostate specific membrane antigen (PSMA), full-length (human) (UniProt Q04609); assay: cell-based or functional assay

Chain of prostate specific membrane antigen (PSMA), full-length (human) (Q04609 whole entry): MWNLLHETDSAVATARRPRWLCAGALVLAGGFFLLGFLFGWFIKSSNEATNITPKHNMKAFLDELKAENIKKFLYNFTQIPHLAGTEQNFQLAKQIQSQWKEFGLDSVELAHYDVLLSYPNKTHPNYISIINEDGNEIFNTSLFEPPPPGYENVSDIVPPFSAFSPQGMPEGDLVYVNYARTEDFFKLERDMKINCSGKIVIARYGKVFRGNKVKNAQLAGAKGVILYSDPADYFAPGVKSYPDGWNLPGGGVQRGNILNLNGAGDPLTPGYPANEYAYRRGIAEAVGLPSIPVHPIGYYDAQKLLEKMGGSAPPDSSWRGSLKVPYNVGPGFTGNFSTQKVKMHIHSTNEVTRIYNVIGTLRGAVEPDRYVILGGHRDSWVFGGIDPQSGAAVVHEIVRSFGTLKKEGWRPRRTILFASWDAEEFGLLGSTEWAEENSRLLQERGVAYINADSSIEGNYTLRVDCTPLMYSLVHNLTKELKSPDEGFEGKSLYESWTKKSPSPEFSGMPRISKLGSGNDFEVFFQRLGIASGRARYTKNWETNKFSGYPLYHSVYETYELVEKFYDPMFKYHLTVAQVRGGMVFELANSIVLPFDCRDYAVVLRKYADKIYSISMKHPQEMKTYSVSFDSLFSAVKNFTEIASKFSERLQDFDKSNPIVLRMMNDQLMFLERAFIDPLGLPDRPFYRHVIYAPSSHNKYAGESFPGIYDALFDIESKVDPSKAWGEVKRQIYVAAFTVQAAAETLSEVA

Row | Immunoreactivity (%) [1] [%] | Immunoreactivity (%), Average [2] [%] | Immunoreactivity (%) [3] [%] | Substance | LD50, immunotoxin cytotoxicity (Mab-Zap saporin secondary) on C4-2 cells [4] [pM] | LD50, immunotoxin cytotoxicity (Mab-Zap saporin secondary) on PSMA-3T3 cells [4] [pM]
1 | 58.5 | 56.7 | 54.9 | ^111In radiolabeled CHX-A″-DTPA antibody mJ591 | – | –
2 | – | – | – | mAb J591 (ATCC #HB-12126) (antibody) | 88.2 | 89
